From patent publication US20030092616A1, “STAT6 activation gene” (priority 2001, published 2003)

B1: 349 (nucleic acid, listed as Homo sapiens)
chain: CCCCCCCGAGCGCCGCTCCGGCTGCACCGCGCTCGCTCCGAGTTTCAGGCTCGTGCTAAGCTAGCGCCGTCGTCGTCTCCCTTCAGTCGCCATCATGATTATCTACCGGGACCTCATCAGCCACGATGAGATGTTCTCCGACATCTACAAGATCCGGGAGATCGCGGACGGGTTGTGCCTGGAGGTGGAGGGGAAGATGGTCAGTAGGACAGAAGGTAACATTGATGACTCGCTCATTGGTGGAAATGCCTCCGCTGAAGGCCCCGAGGGCGAAGGTACCGAAAGCACAGTAATCACTGGTGTCGATATTGTCATGAACCATCACCTGCAGGAAACAAGTTTCACAAAAGAAGCCTACAAGAAGTACATCAAAGATTACATGAAATCAATCAAAGGGAAACTTGAAGAACAGAGACCAGAAAGAGTAAAACCTTTTATGACAGGGGCTGCAGAACAAATCAAGCACATCCTTGCTAATTTCAAAAACTACCAGTTCTTTATTGGTGAAAACATGAATCCAGATGGCATGGTTGCTCTATTGGACTACCGTGAGGATGGTGTGACCCCATATATGATTTTCTTTAAGGATGGTTTAGAAATGGAAAAATGTTAACAAATGTGGCAATTATTTTGGATCTATCACCTGTCATCATAACTGGCTTCTGCTTGTCATCCACACAACACCAGGACTTAAGACAAATGGGACTGATGTCATCTTGAGCTCTTCATTTATTTTGACTGTGATTTATTTGGAGTGGAGGCATTGTTTTTAAGAAAAACATGTCATGTAGGTTGTCTAAAAATAAAATGCATTTAAACTCATTTGAGAG
modifications: CDS (95)..(610)
B2: 345 (nucleic acid, listed as Homo sapiens)
chain: CCAGCCAACGAGCGGAAAATGGCAGACAATTTTTCGCTCCATGATGCGTTATCTGGGTCTGGAAACCCAAACCCTCAAGGATGGCCTGGCGCATGGGGGAACCAGCCTGCTGGGGCAGGGGGCTACCCAGGGGCTTCCTATCCTGGGGCCTACCCCGGGCAGGCACCCCCAGGGGCTTATCCTGGACAGGCACCTCCAGGCGCCTACCATGGAGCACCTGGAGCTTATCCCGGAGCACCTGCACCTGGAGTCTACCCAGGGCCACCCAGCGGCCCTGGGGCCTACCCATCTTCTGGACAGCCAAGTGCCCCCGGAGCCTACCCTGCCACTGGCCCCTATGGCGCCCCTGCTGGGCCACTGATTGTGCCTTATAACCTGCCTTTGCCTGGGGGAGTGGTGCCTCGCATGCTGATAACAATTCTGGGCACGGTGAAGCCCAATGCAAACAGAATTGCTTTAGATTTCCAAAGAGGGAATGATGTTGCCTTCCACTTTAACCCACGCTTCAATGAGAACAACAGGAGAGTCATTGTTTGCAATACAAAGCTGGATAATAACTGGGGAAGGGAAGAAAGACAGTCGGTTTTCCCATTTGAAAGTGGGAAACCATTCAAAATACAAGTACTGGTTGAACCTGACCACTTCAAGGTTGCAGTGAATGATGCTCACTTGTTGCAGTACAATCATCGGGTTAAAAAACTCAATGAAATCAGCAAACTGGGAATTTCTGGTGACATAGACCTCACCAGTGCTTCATATACCATGATATAATCTGAAAGGGGCAGATTAAAAAAAAAAAAAAAGAATCTAAACCTTACATGTGTAAAGGTTTCATGTTCACTGTGAGTGAAAATTTTTACATTCATCAATATCCCTCTTGTAAGTCATCTACTTAATAAATATTACAGTGAAAG
modifications: CDS (19)..(768)
B3: 89 (nucleic acid, listed as Homo sapiens)
chain: GTAGTGCGGCGCTGTTTAAAGATGGCGGCGGAGGAACCTCAGCAGCAGAAGCAGGAGCCGCTGGGCAGCGACTCCGAAGGTGTTAACTGTCTGGCCTATGATGAAGCCATCATGGCTCAGCAGGACCGAATTCAGCAAGAGATTGCTGTGCAGAACCCTCTGGTGTCAGAGCGGCTGGAGCTCTCGGTCCTATACAAGGAGTATGCTGAAGATGACAACATCTATCAACAGAAGATCAAGGACCTCCACAAAAAGTACTCGTACATCCGCAAGACCAGGCCTGACGGCAACTGTTTCTATCGGGCTTTCGGATTCTCCCACTTGGAGGCACTGCTGGATGACAGCAAGGAGTTGCAGCGGTTCAAGGCTGTGTCTGCCAAGAGCAAGGAAGACCTGGTGTCCCAGGGCTTCACTGAATTCACAATTGAGGATTTCCACAACACGTTCATGGACCTGATTGAGCAGGTGGAGAAGCAGACCTCTGTCGCCGACCTGCTGGCCTCCTTCAATGACCAGAGCACCTCCGACTACCTTGTGGTCTACCTGCGGCTGCTCACCTCGGGCTACCTGCAGCGCGAGAGCAAGTTCTTCGAGCACTTCATCGAGGGTGGACGGACTGTCAAGGAGTTCTGCCAGCAGGAGGTGGAGCCCATGTGCAAGGAGAGCGACCACATCCACATCATTGCGCTGGCCCAGGCCCTCAGCGTATCCATCCAGGTGGAGTACATGGACCGCGGCGAGGGCGGCACCACCAATCCGCACATCTTCCCTGAGGGCTCCGAGCCCAAGGTCTACCTTCTCTACCGGCCTGGACACTACGATATCCTCTACAAATAGGGCTGGCTCCAGCCCGCTGCTGCCCTGCTGCCCCCCTCTGCCAGGCGCTAGACATGTACAGAGGTTTTTCTGTGGTTGTAAATGGTCCTATTTCACCCCCTTCTTCCTGTCACATGACCCCCCCCCATGTTTTATTAAAGGGGGTGCTGGTGGTG
modifications: CDS (22)..(834)
B4: 85 (nucleic acid, listed as Homo sapiens)
chain: ATTTCCGGTTCCGGCTGCGGGCCGGTGAAGATATGGCGGCGTCTGCGTCTGCAGCTGCAGGGGAGGAGGACTGGGTCCTTCCCTCTGAAGTTGAAGTATTGGAGTCCATCTATCTAGATGAACTACAGGTGATTAAAGGAAATGGCAGAACTTCACCATGGGAGATCTACATCACTTTGCATCCTGCCACTGCAGAGGACCAGGATTCACAGTATGTCTGCTTCACTCTGGTGCTTCAGGTCCCAGCAGAGTATCCCCATGAGGTGCCACAGATCTCTATCCGAAATCCCCGAGGACTTTCAGATGAACAGATCCACACGATCTTACAGGTGCTGGGCCACGTGGCCAAGGCTGGGCTGGGCACTGCCATGCTGTATGAACTCATTGAGAAAGGGAAGGAAATTCTCACAGATAACAACATCCCTCATGGCCAGTGTGTCATCTGCCTCTATGGTTTCCAGGAGAAGGAGGCCTTTACCAAAACACCCTGTTACCACTACTTCCACTGCCACTGCCTTGCTCGGTACATCCAGCACATGGAGCAAGAGCTGAAGGCACAAGGACAGGAGCAGGAACAGGAACGGCAGCATGCTACAACCAAACAGAAGGCAGTCGGTGTGCAGTGTCCAGTGTGCAGAGAGCCCCTCGTGTATGATCTTGCCTCACTGAAAGCAGCCCCTGAACCCCAACAGCCCATGGAGCTGTACCAGCCCAGTGCAGAGAGCTTGCGCCAGCAAGAAGAACGCAAGCGGCTCTACCAGAGGCAGCAGGAGCGGGGGGGAATCATTGACCTTGAGGCTGAGCGAAACCGATACTTCATCAGCCTTCAGCAGCCTCCTGCCCCTGCGGAACCTGAGTCAGCTGTAGATGTCTCCAAAGGATCCCAACCACCCAGCACCCTTGCAGCAGAACTATCCACCTCACCAGCCGTCCAATCCACTTTGCCACCTCCTCTGCCTGTGGCGACCCAGCACATATGTGAGAAGATTCCAGGGACCAGGTCAAATCAGCAAAGGTTGGGCGAAACCCAGAAAGCTATGCTAGATCCCCCCAAGCCCAGTCGAGGTCCCTGGCGACAGCCCGAACGGAGGCACCCAAAGGGAGGGGAGTGCCACGCCCCTAAAGGTACCCGTGACACCCAGGAACTGCCACCTCCTGAGGGGCCCCTCAAGGAGCCCATGGACCTAAAGCCAGAACCCCATAGCCAAGGAGTTGAAGGTCCTCCACAAGAGAAGGGGCCTGGCAGCTGGCAGGGGCCCCCACCCCGCAGGACTCGGGACTGTGTTCGCTGGGAGCGCTCTAAGGGCCGGACACCCGGTTCTTCCTACCCTCGCCTGCCTCGGGGCCAGGGAGCATACCGGCCTGGTACTCGGAGGGAGTCCCTGGGCCTGGAATCTAAGGATGGTTCCTAGCAGGACTTGGTGGGGGGAACAGGGAATTGGGGATGGGAGGGAGGCAATAAAGATATTTGGCCTTCTTTGGCTTTCTTTGCTT
modifications: CDS (33)..(1409)
B5: 327 (nucleic acid, listed as Homo sapiens)
chain: TGTCGACGCCGCTGCCACCGCCTGCCTGAGAGAAGTCGTCGCGGCCGACCCCGTCGCCTCCGCCGGCTACCATGTCCGCCCAGGCGCAGATGCGGGCCCTGCTGGACCAGCTCATGGGCACGGCTCGGGACGGAGACGAAACCAGACAAAGGGTCAAGTTTACAGATGACCGTGTCTGCAAGAGTCACCTTCTGGACTGCTGCCCCCATGACATCCTGGCTGGGACGCGCATGGATTTAGGAGAATGTACCAAAATCCACGACTTGGCCCTCCGAGCAGATTATGAGATTGCAAGTAAAGAAAGAGACCTGTTTTTTGAATTAGATGCAATGGATCACTTGGAGTCCTTTATTGCTGAATGTGATCGGAGAACTGAGCTCGCCAAGAAGCGGCTGGCAGAAACACAGGAGGAAATCAGTGCGGAAGTTTCTGCAAAGGCAGAAAAAGTACATGAGTTAAATGAAGAAATAGGAAAACTCCTTGCTAAAGCCGAACAGCTAGGGGCTGAAGGTAATGTGGATGAATCCCAGAAGATTCTTATGGAAGTGGAAAAAGTTCGTGCGAAGAAAAAAGAAGCTGAGGAAGAATACAGAAATTCCATGCCTGCATCCAGTTTTCAGCAGCAAAAGCTGCGTGTCTGCGAGGTCTGTTCAGCCTACCTTGGTCTCCATGACAATGACCGTCGCCTGGCAGACCACTTCGGTGGCAAGTTACACTTGGGGTTCATTCAGATCCGAGAGAAGCTTGATCAGTTGAGGAAAACTGTCGCTGAAAAGCAGGAGAAGAGAAATCAGGATCGCTTGAGGAGGAGAGAGGAGAGGGAACGGGAGGAGCGTCTGAGCAGGAGGTCGGGATCAAGAACCAGAGATCGCAGGAGGTCACGCTCCCGGGATCGGCGTCGGAGGCGGTCAAGATCTACCTCCCGAGAGCGACGGAAATTGTCCCGGTCCCGGTCCCGAGATAGACATCGGCGCCACCGCAGCCGTTCCCGGAGCCACAGCCGGGGACATCGTCGGGCTTCCCGGGACCGAAGTGCGAAATACAAGTAACTACTCTGACTCCTTCGGTAGCTGCAACCAGGGGTTCTCCAGAGAGCGGGCATCCAGAGAGGAGTCCTGGGAGAGCGGGCGGAGCGAGCGAGGGCCCCCGGACTGGAGGCTTGAGAGCTCCAACGGGAAGATGGCTTCACGGAGGTCAGAAGAGAAGGAGGCCGGCGAGATCTGAACCCGTCTCCCGGGTGCTGTAAATAGTCTGATAAACGTTCACACAGTCTAAAATTACCCTTTATATTTGCTGAATACAACTCATCTTTTGTAGTTTAAAATTTCTATTGTTTTGGAGCTAGCTGTGAGTTTCTAGAAGTGTACAGAGTTGCTCCTGTGTTCCCGGGTCATGTTGAGTAGGAATAAATAAATCTGATGCTGCCTCCTGAGGCTGCGGGGGGTTTCTGC
modifications: CDS (72)..(1046)

Test system: STAT6
Experiment: Screening of full-length cDNA clones for promotion of STAT6 activation (luciferase reporter N4×8-luc)
Format: cell-based
Details: NIH3T3 cells cotransfected with N4×8-luc reporter and cDNA plasmid; 48 h culture, then mouse IL-4 0.5 ng/ml for 6 h
Procedure, shortened: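 NIH3T3 cells cotransfected with STAT6-responsive N4×8-luc reporter (100 ng) and full-length cDNA, cultured 48 h, then given mouse IL-4 at 0.5 ng/ml final for 6 h. Luciferase activity compared with reporter plus null-vector control.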

Molecule	Activity = (luciferase activity of the gene of each SEQ ID NO:)/(luciferase activity of pME18S-FL3)
B1	24.3
B2	3.7
B3	10.2
B4	11.5
B5	5.3
